For data set [1], the system named is Cc1cn([C@H]2C[C@H](O)[C@@H](COP(=O)(O)OP(=O)(O)O[C@H]3O[C@H](C)C(=O)[C@H](O)[C@H]3O)O2)c(=O)[nH]c1=O. The data set can be described thus: purified protein. As to conditions: pH 7.5.
The data set “crystal structure” deals with the molecule itself. The data set can be described thus: crystal structure.

In general, Km refers to the concentration of substrate that gives half-maximal velocity. The term kcat/Km denotes the second-order rate constant that governs catalysis at low substrate concentration. For the molecule “EvaD (AoEvaD) (Amycolatopsis orientalis)”, in data set [1], the Km worked out at 632 ± 98 µM and the kcat/Km was found to be 630 ± 70 M⁻¹ s⁻¹.
Consider “RmlC (EcRmlC; E. coli RfbC) (Escherichia coli K-12)”, for which, in data set [1], the Km came out at 830 ± 40 µM and the kcat/Km was determined as 6600 ± 200 M⁻¹ s⁻¹.
For StrM (SgStrM) (Streptomyces griseus), in that order: 600 ± 40 µM and 9100 ± 400 M⁻¹ s⁻¹.

B1: Streptomyces griseus StrM (TDP-sugar 3'',5''-epimerase, RmlC ortholog) (enzyme, UniProt P29783 1-200, looked up)
chain: MRPLSVQGAWLSETRAFADDRGEFQELYSARSLRGALGYDPGVAQVNRSVSRRGVLRGVHFAQLPPSQAKYVTCLSGAVLDVVVDIRTGSPTYRAWEAVRLDDPHRSLYVEAGLGHSFMALTDDAVVVYLTSQGYAAGREHGVHPLDPDLGIAWPDGIEPVLSEKDRQAPGIAEMERRGLLPDYEECLAFRRSLCERGTG
notes: also called SgStrM
In the case of B1, the binding result in the data set “crystal structure” is given as “binds”.

The values above are taken from publication PMC9095892 (The Journal of Biological Chemistry, 2022).
